Test results from the nanobody polyreactivity screen of Harvey et al. (2022).

Test: yeast display, Sf9 membrane polyspecificity reagent, FACS + sequencing; frameworks hold sequencing errors
Method in brief: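 A nanobody's polyreactivity label depends on the gate it was sorted from. Yeast display cells were stained with 10% biotinylated, detergent-solubilized Sf9 membrane reagent for 1 hour at 4 °C, enriched on streptavidin microbeads and sorted by FACS. The low and high (top ~1%) gates were set on anti-HA fluorescence for expression and streptavidin fluorescence for reagent binding.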

Sequence	polyreactivity (PSR sort gate)
QVQLVESGGGLVQEGGSLRLSCAASGFIFSSNDMGWYRQPPGKERELVAVISRSGGRTYYADSVKGRFTISRDNAKNTVYLQMNSLKPEDTSVYYCNKKDRLGHSGRDYWGQGTQVTVSS	high polyreactivity
QVQLVESGGGLVQVGGSLRLSCAASGSNFPANAMGWYRQAPGKEWEFVAAINWSTGTTYYADSVKGRFTISRDNAKNTVYLQMNSLKPEDTAVYYCNASDQAKYDYWGQGTQVTVSS	low polyreactivity
QVQLVESGGGLVQAGGSLRLSCAASGSIFDGYAMGWNSQAPGKERELVAAISQRGGSTYYADSVKGRFTISRDNAKNTVYLQINSLKPEETAVYYCAADSSYGTRDYWGQGTQVTVSS	low polyreactivity
QVQLVESGGGLVQAGGSLRLSCAASGRIFGRYAMGWYRQAPGKERELVATITYTGGSTYYADSVKGRFTISRDNAKNTVYLQMNSLKPEDTAVYSCNAVKPVSRTYDSSYYWGPGTQVTVSS	high polyreactivity
QVQLVESGGGLVQAGGSLRLSCAASARIFDTYAMGWYRQAPGKETELVDSISIDGSTYYADSVKGRFTISRDNAKNTVYLQMNSLKPEDTAVYYCNADGRYYTVRFEYWGQGTQVTVSS	low polyreactivity
QVQLGESGGGLVQAGGSVRLSCAASGGTFGWYAMGWYRPAPGKERELVAAITSSGGTTFDADSVKGRFTISRDNAKNTVYLQMNSLKPEDTAVYYCAKRGQRPTRYKLGKYDYWGQGTQVTVSS	high polyreactivity
QVQLVESGGGLVQAGGSLRLSCAASGSTFASNAMGWYRQAPGKERELVAAIDWTGASTYYADSVKGRFTISRDNAKNTVYLQMNSLKPEDTAVYYCNADEYWNSRTQGYNYWGQGTQVTVSS	low polyreactivity
QVQLVESGGGLVQAGGSLRLSCAASGSTFPGYAMGWYRQAPGKERELVAAISTSGGRTYYADSVKGRFTISRDNAKNTVYLQMNSLKPEDTAVYYCAADASTWYTEEYWGQGTQVTVSS	low polyreactivity
QVQLVESGGGLVQAGGSLRLSCAASGSTIRHYAMGWYRQAPGKERELVAAISYSGGSTYYADSVKGRFTISRYNAKNNVYLQMNSLKPEDTAVYYCAARSPSKMGYWGQGTQVTVSS	high polyreactivity
QVQLVESGGGLVQAGGSLRLSCAASGFTFVRYTMGWYRQAPGKERELVAAITASGDRTYYADSVKGRFTISRDNAKNTVYLQMNSLKPEDTAVYYCAARVWRTVTRSKYGYWGQGTQVTVSS	high polyreactivity
QVQLVESGGGLVQAGGSLRLSCAASGRIFTFYAMGWYRQAPGKERELVAVITTGTSTTYADSVKGRVTISRDNAKNTVYLQMNSLKPEDTAVYYCAVESWSRVQGWLAHNYDYWGQGTQVTVSS	low polyreactivity
QVQLVESGGCLVQAGGSHRLSCAASGYIVWENAMGWYRPAPGKERELVAAITVTGGGTYYADSVKGRFTISRDNSKNPGYLHMNSLKPEDTAVYYCAPDEDNPWLWFYYWGQGTQVTVSS	low polyreactivity
QVQLVESGGGLVQAGGSLRLSCAASGLTLAGYAMGWYRQAPGKERELVAAITASGVRTYYADSVKGRFTISRDNAKNTVYLQMNSLKPEDTAVYYCAAGVQTQRGGYAIYRPGLRYYWGQGTQVTVSS	high polyreactivity
QVQLVESGGGLVQAGGSLRLSCAASGLTFSPYAMGWYRQAPGKERELVAAISYSGGSTYYADSVKGRFTISRDNAKNTVYLQMISLKPEDTAVYYCAVVVPNLLRDGRRMYYWGQGTQVTVSS	high polyreactivity
QVQLVESGGGLVQAGGSLRLSCAASGRTFRTYAMGWYRQAPGKERELVAAITSGGSTYYADSVKGRFTISRDNAKNTVYLQMNSLKPEDTAVYDCAAISTWGTKYDYWGQGTQVTVSS	high polyreactivity
QVQLVESGGGLVQAGGSLRLSCAASGSTFVLYAMGWYRQAPGKERELVAAISTSGGRTYYADSVKGRFTISRDNAKNTVNLQMNSLKPEDTAVYYCAALTYVAQYDEYWGQGTQVTVSS	low polyreactivity
QVQLVESGGGLVQAGGSLRLSCAASGRTFSGYAMGWYRQAPGKERELVATITWSSGSTYYADSVKGRFTISRDNAKNTVYLQMNSLKPEDTAVYYCNADQGSALRWSYDYWGQGTQVTVSS	low polyreactivity
QVQLVESGGGLVQAGGSLRLSCAASGSIVLIYAMGWYRQAPGKERELVAAITGRGGRTYYADSVKGRFTISRDNAKNTVYLQLNSLKPEDTAVYYCAADSVYTLGLKYDYWGQGTQVTVSS	high polyreactivity
QVQLVDSGGGLVQAGGSLRLSCAASGSIFGSYAMGWYRQAPGKERELVAGISGRGGSTYYADSVKGRFTISRDNAKNTVYLQMNSLKPEDTAVYYCAAGRRNGWLIPHYYWGQGTQVTVSS	high polyreactivity
QVQLVESGGGLVQAGGSLRLSCAASGSIFSNNAMGWYRQAPGKERELVAAISRSGTNTYYADSVKGRFTISRDNAKNTVYLQMNSLKPEDTAVEYCAARGVYVKYYYWGQGTQVTVSS	high polyreactivity
QVQLVESGGGLVQAGGSLRLSCAASGFIFYDYAMGWYRQAPGKERELVAAIRSSDGGTYYADSVKGRFTISRDNAKNTVYLQMNSLKPEDTAVYYCAAEIRWGWHPYYDYDEYWGQGTQVTVSS	low polyreactivity
QVQLVESGGGVVQAGGSIRLSGAASGRIFGEYAMGWYRPAPAKERELGAAISGGGSTYYADSVKGRFTISRDNAKNTVYLQMNSLKPEDTAVYYCAVYSVYHEYDYGGQGTQVTVSS	low polyreactivity

Sequence	polyreactivity (PSR sort gate)
QVQLVESGGGLVQAGGSLRLSCAASGLNFRKYAMGWYRQAPGKERELVAGISSGGSTYYADSVKGRFTISRDNAKNTVYLQMNSLKPEDTAVYYCAAKALRTMYYWGQGTQVTVSS	high polyreactivity
QVHLVESGGGLVQAGGSLRLTCAASGRIFTSYVMGRSRQAPGQVRDLVAAITRSGGSTYYADSVKGRFTISRDNAKNTVYLQMNSLKPEDTAVYYCNALTRRQNGGEGGGYWGQGTHVTVSS	high polyreactivity
QVQLVESGGGLVQAGGSLRLSCAASGRTFYLYARGWYRQAPGKERELVAAITRSGGSTYYADSVKGRFTISRDNAKNTVYLQMNSLKPEDTAVYYCAAYSYYGAGDRAYDYWGQGTQVTVSS	high polyreactivity
QVQLVESGGGLVQAGGSLRLRCAASGRTFSGYAMGWYRQAPGKERELVAAITSGGNTYYADSVKGRFTISRDNAKNTVYLQMNSLKPEDTAVYYCAVVDYLWLLQLWLSDYWGQGTQVTVSS	low polyreactivity
QVQLVESGGGLVQAGGSLRLSCAASGFTFYKNTMGWYRQAPGKERELVAAISGSGGRTYYADSVKGRFTISRDNAKNTVYLQMNSLKPEDTAVYYCNAAARYRWQYDYSLYEYGHWGQGTQVTVSS	high polyreactivity
QVQLVESGGGLVQAGGSLRLICAASGRTLDYYAMGWYRQAPGKERELVGAISQSDDSTYYADSVKGRFTISRDNSKNTVYLQMNILKPEDTAVNYCAAEIELFSPDGVGIYWYVYWGQGTQVYVSS	high polyreactivity
QVQLLESGGGLVQAGGSLRISCAASGFTFWYYAMGWYRQAPGKERELVAAITSSGGSTYYADSVKGRFTISRDNAKNTVYLQMNSLKPEDTAVYYCAAGAPYRYYYWGQGTQVTVSS	high polyreactivity
QVQLVESGGGLVQAGGSLRLSCAASGITFRFYAMGWYRQAPGKERELVAVISRGGGTTYYADSVKGRFTISRDNAKNTVYLHMNSLKPEDTAVYYCNAVIAWYRSDEYDYWGQGTQVTVSS	high polyreactivity
QGQLVESGGGLVQAGGSLRLSCAASGLTFGSYTMGWYRQAPGKERELVAAITSDGSTNYADSVKGRFTISRDNAKNTVYLQMNSLKPEDTAVYYCAATRVSYRQFKAIGYHYWGQGTQVTVSS	high polyreactivity
QVQLVESGGGLVQAGGSLRLSCAASGRIFNRNAMGWYRQAPGKERELVAAITRGGRTNYADSVKGRFTISRDNAQNTVYLHMNSLKPEDTAVYYCAAAYYGSHCRYDYWGQGTQVTVSS	high polyreactivity
QVQLVESGGGLVQAGGSLRLSCAASGITFGFNAMGWYRQAPGKERELVAAITWSVGRTYYADSVKGRFTISRDNAKNTVYLQMNSLKPEDTAVYYCAKEFVAGDDYFAYDYWGQGTQVTVSS	low polyreactivity
QVQLVESGGGLVQAGGSLRLSCAASRRTFANYAMGWYRQAPGKERELVAAISRSGGSTYYADSVKGRFTISRDNAKNSVYLQMKSLKPEDTAVYYCAARYVRQYYRAEDYWGQGTHVTVSS	high polyreactivity
QVQLVESGGGLVQAGGSLRLSCAASGSIFIANAMGWYRQAPGKERELVATISWSGGRTYYADSVKGRFTISRDNAKNTVYLQMNSLKPEDTAVYYCAAVYGAYDSGYKYNYWGQGTQVTVSS	high polyreactivity
QVQLVESGGGLVQAGGSLRLSCAPSGITFRPNAMGWYRQARGKERELVAAISSGDGTYADSVKGRFTISRDNAKNTVYLQMNSLKPEDSAVYYCNATGQSYVTSEYDYWGQGTQVTVSS	low polyreactivity
QVQLVESGGGLVQAGGSHRLSCAASGLTFRKYAMGWYRQAPGKERELVATISRNGGSTYYADSVKGRFTISRDNAKNTVYLQMNSLKPEDTAVYYCAADYYTYDYAGYGDWGQGTQVTVSS	high polyreactivity
HVQLVESGGGLVQAGGSLRLSCAASGIIFGAYALGWYRQAPGKERELVAAITYSSGSTYYADSVKGRFTISRDNAKNTVYLQMNSLKPEDTAVYYCAKTNFSQSSRYNYDYWGQGTQVTVSS	low polyreactivity
QVQLVESGGCLVQAGGSLRLSCAASGRIFYRYAMGWSRQAPGKVRELVATISWSGGSTYYAHSVKGRFTISRDNAKYTVYLQLNSLKPEDTAVYYCNAAYGNVSRVYYLIEHDYWGQGTQVTVSS	high polyreactivity
QVQLVESGGGLVQAGGSLRLSCAASGGILRDYAMGWSRQAPGKERELVAAISRGGRTNYADSVKGRFTISRDYSKNTVYLQLNSLKPEDTAVYYCAKRYARGENDYWGQGTQVNVSS	high polyreactivity
QVQLVESGGGLVQAGGSLRLSCAASGLILYTYAMGWYRQAPGKERELVAALNSGGRTYSADSVKGRFTISRDNAKNTVYLQMNSLKPEDTAVYYCAADYGSRVRGFNYWGQGTQVTVSS	low polyreactivity
QVQLVESAGGLVQAGGSLRLSCAASGRIFSIYAMGWSRQAPGKERELVAAIRRGGSTSYADSVKGRFTISRDNAKNTVYLQMNSLKPEDTAVYYCAARLRYLGYDFWGQGTQVTVSS	high polyreactivity
QDQLVESGGGLVQAGGSLRLSCDASGSTFLVYAMGWYRQAPGKERELVAAITQIDGSTYYADSVKGRFTISRDNAKNTVYLQMNSLKPEDTAVYYCAARYFWTYEYDYWGHGTQVTVSS	low polyreactivity
